In patent US20200299408A1 (Genentech, published 2020):
“And” between values parts separate entries of the source, which are not always exact repeats. Identical values can stand only once. Like-named read-outs stand apart in the source and are kept apart here.

T1: single chain human CD3ε-26mer-CD3γ (CD3εγ) (human)
T1 construct: also called human CD3εγ
T1 chain: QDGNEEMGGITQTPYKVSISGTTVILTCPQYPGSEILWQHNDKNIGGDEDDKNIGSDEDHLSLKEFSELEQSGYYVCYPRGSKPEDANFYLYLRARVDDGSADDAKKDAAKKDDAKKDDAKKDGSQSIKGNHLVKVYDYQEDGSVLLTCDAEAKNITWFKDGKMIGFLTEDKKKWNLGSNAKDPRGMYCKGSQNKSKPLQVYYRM


What was measured:
[1] = target: T1, single chain human CD3ε-26mer-CD3γ …; assay: Biacore full (multi-) cycle kinetics; KD relative to hu38E4.v1
Source text: (§1) In addition, position 95 in HVR-H3 was also mutated to serine, threonine, or glutamate. Variants with these single point mutations were expressed as Fabs in HEK293 cells and initially screened with a single cycle kinetics method on a Biacore T100. Selected variants were also scaled up and purified for a conventional multi-cycle kinetics method. For single cycle kinetics, Biacore Series S CM5 sensor chips were immobilized with anti-human Fab antibodies (Human Fab capture kit, GE Healthcare). […] For conventional multi-cycle kinetics, human CD3εγ, cyno CD3εγ, or a 27-mer peptide were immobilized on Biacore Series S CM5 sensor chip using the amine coupling kit from Biacore. Serial 3-fold dilutions of each Fab variant were injected at a flow rate of 30 μl/min. Each sample was analyzed with a protocol of 3-minute association and 3-minute dissociation. In both methods, the Biacore chips were regenerated using 10 mM Glycine (pH 1.7). Binding response was corrected by blank subtraction and a 1:1Languir model of simultaneous fitting of kₒₙ and koff was used for kinetics analysis.

[2] = target: T1, single chain human CD3ε-26mer-CD3γ …; assay: Biacore full (multi-) cycle kinetics: antigen on chip, Fab injected; antigen not named on the sheet, taken as human CD3εγ
Source text: as §1

[3] = target: T2, human CD3 on T cells (human, UniProt P07766 22-207); assay: FACS on Jurkat cells (CD3); EC50 table for the curves of FIGS. 21A-21B; source CHO (N297G)
T2 construct: whole, on cells; On cells CD3ε stands in the CD3/TCR complex; also called CD3 antigen; CD3ε
Description: (§2) Binding affinities for the each of the CD3/CD20 TDBs were tested by Biacore or FACS analysis, as described above for the anti-CD3 antibodies. Briefly, for Biacore binding assays, human CD3εγ was immobilized on Biacore Series S CM5 sensor chip using the amine coupling kit from Biacore and CD3/CD20 TDBs or Fab variants thereof were in the flow through. For FACS binding assays, either Bjab cells (for B cell antigens) or Jurkat cells (for CD3 antigen) were incubated with various concentrations of TDB antibodies at 4° C. for 30 minutes, then cells were washed and incubated with 2nd antibody (anti-huIgG-PE; BD Bioscience) for another 15 minutes, before cells were washed again and ready for FACS analysis.

[4] = target: T1, single chain human CD3ε-26mer-CD3γ …; assay: Biacore, human CD3εγ on chip, TDB in flow through
Description: as §2

[5] = target: CD3 antigen of Figures 3B and 3C (not named); assay: kinetic table of IgGs; method and antigen not stated
[6] = target: CD3 antigen of Figures 3B and 3C (not named); assay: as above; remark: listed apart in the source

Binder	ratio (fold) [1] [fold]	Kd [2] [nM]	koff [2] [s⁻¹]	kon [2] [M⁻¹ s⁻¹]	further results
hu38E4.v1 H3 mutant D95S (Fab, V domains shown, copies: 1 + 1) VH: EVQLVQSGAEVKKPGASVKVSCKASGFTFTSYYIHWVRQAPGQGLEWIGWIYPENDNTKYNEKFKDRVTITADTSTSTAYLELSSLRSEDTAVYYCARSGYSRYYFDYWGQGTLVTVSS VL: DIVMTQSPDSLAVSLGERATINCKSSQSLLNSRTRKNYLAWYQQKPGQSPKLLIYWTSTRKSGVPDRFSGSGSGTDFTLTISSLQAEDVAVYYCKQSFILRTFGQGTKVEIK	226	180	0.202	1.12e+06	–
40G5c CHO (bispecific antibody, V domains shown, CHO-produced full-length knob-into-hole IgG with N297G in the Fc; constant regions are not in the letters., CHO material; also called CD3/CD20 TDB 2H7v16/40G5c produced in CHO, N297G) VH 1: EVQLVESGGGLVQPGGSLRLSCAASGYTFTSYNMHWVRQAPGKGLEWVGAIYPGNGDTSYNQKFKGRFTISVDKSKNTLYLQMNSLRAEDTAVYYCARVVYYSNSYWYFDVWGQGTLVTVSS VL 1: DIQMTQSPSSLSASVGDRVTITCRASSSVSYMHWYQQKPGKAPKPLIYAPSNLASGVPSRFSGSGSGTDFTLTISSLQPEDFATYYCQQWSFNPPTFGQGTKVEIK VH 2: EVQLVQSGAEVKKPGASVKVSCKASGYTFTNYYIHWVRQAPGQGLEWIGWIYPGDGNTKYNEKFKGRATLTADTSTSTAYLELSSLRSEDTAVYYCARDSYSNYYFDYWGQGTLVTVSS VL 2: DIVMTQSPDSLAVSLGERATINCKSSQSLLNSRTRKNYLAWYQQKPGQPPKLLIYWASTRESGVPDRFSGSGSGTDFTLTISSLQAEDVAVYYCTQSFILRTFGQGTKVEIK	–	–	–	–	EC50 [3]: 2.01 µg/mL and ~13 nM; Kd [4]: 0.0515 µM; koff [4]: 0.0307 s⁻¹; kon [4]: 597000 M⁻¹ s⁻¹
hu38E4.v1 H3 mutant D95T (Fab, V domains shown, copies: 1 + 1) VH: EVQLVQSGAEVKKPGASVKVSCKASGFTFTSYYIHWVRQAPGQGLEWIGWIYPENDNTKYNEKFKDRVTITADTSTSTAYLELSSLRSEDTAVYYCARTGYSRYYFDYWGQGTLVTVSS VL: DIVMTQSPDSLAVSLGERATINCKSSQSLLNSRTRKNYLAWYQQKPGQSPKLLIYWTSTRKSGVPDRFSGSGSGTDFTLTISSLQAEDVAVYYCKQSFILRTFGQGTKVEIK	43	34.2	0.00175	51100	–
hu38E4.v1 H3 mutant G96A (Fab, V domains shown, copies: 1 + 1) VH: EVQLVQSGAEVKKPGASVKVSCKASGFTFTSYYIHWVRQAPGQGLEWIGWIYPENDNTKYNEKFKDRVTITADTSTSTAYLELSSLRSEDTAVYYCARDAYSRYYFDYWGQGTLVTVSS VL: DIVMTQSPDSLAVSLGERATINCKSSQSLLNSRTRKNYLAWYQQKPGQSPKLLIYWTSTRKSGVPDRFSGSGSGTDFTLTISSLQAEDVAVYYCKQSFILRTFGQGTKVEIK	2.4	1.9	0.00357	1.86e+06	–
38E4v9 CHO (bispecific antibody, also called CD3/CD20 TDB 2H7v16/38E4v9) anti-CD20 arm heavy chain: EVQLVESGGGLVQPGGSLRLSCAASGYTFTSYNMHWVRQAPGKGLEWVGAIYPGNGDTSYNQKFKGRFTISVDKSKNTLYLQMNSLRAEDTAVYYCARVVYYSNSYWYFDVWGQGTLVTVSS anti-CD20 arm light chain: DIQMTQSPSSLSASVGDRVTITCRASSSVSYMHWYQQKPGKAPKPLIYAPSNLASGVPSRFSGSGSGTDFTLTISSLQPEDFATYYCQQWSFNPPTFGQGTKVEIK anti-CD3 arm heavy chain: EVQLVQSGAEVKKPGASVKVSCKASGFTFTSYYIHWVRQAPGQGLEWIGWIYPENDNTKYNEKFKDRVTITADTSTSTAYLELSSLRSEDTAVYYCARDGYSRAYFDYWGQGTLVTVSS anti-CD3 arm light chain: DIVMTQSPDSLAVSLGERATINCKSSQSLLNSRTRKNYLAWYQQKPGQSPKLLIYWTSTRKSGVPDRFSGSGSGTDFTLTISSLQAEDVAVYYCKQSFILRTFGQGTKVEIK	–	–	–	–	EC50 [3]: 15 µg/mL and ~97 nM; Kd [4]: 64.2 µM; koff [4]: 1.02 s⁻¹; kon [4]: 15900 M⁻¹ s⁻¹
hu38E4.v1 H3 mutant Y100A (Fab, V domains shown, copies: 1 + 1) VH: EVQLVQSGAEVKKPGASVKVSCKASGFTFTSYYIHWVRQAPGQGLEWIGWIYPENDNTKYNEKFKDRVTITADTSTSTAYLELSSLRSEDTAVYYCARDGYSRAYFDYWGQGTLVTVSS VL: DIVMTQSPDSLAVSLGERATINCKSSQSLLNSRTRKNYLAWYQQKPGQSPKLLIYWTSTRKSGVPDRFSGSGSGTDFTLTISSLQAEDVAVYYCKQSFILRTFGQGTKVEIK	521	414	0.0191	46000	–
38E4 (antibody, IgG3, V domains shown, mouse hybridoma clone; also called mu38E4) VH: QVQLQQSGPELVKPGASVTISCTASGFTFTSYYIHWVRQRPGQGLEWIGWIYPENDNTKYNEKFKDKATLTADTSSSTAYMQLSSLTSEDSAVYYCARDGYSRYYFDYWGQGTTLTVSS VL: DIVMTQSPSFLAVSAGEKVTMSCKSSQSLLNSRTRKNYLAWYQQRPGQSPKLLIYWTSTRKSGVPDRFTGSGSGTDFTLTISSVQAEDLAIYYCKQSFILRTFGGGTKLEIK	–	–	–	–	Kd [5]: 0.0783 nM; koff [5]: 3.45e-05 s⁻¹; kon [5]: 441000 M⁻¹ s⁻¹; Kd [6]: 0.95 nM; koff [6]: 5.32e-05 s⁻¹; kon [6]: 56000 M⁻¹ s⁻¹
Rab17 (antibody, rabbit IgG1, V domains shown, clone from the rabbit immunization) VH: QSVKESEGGLFKPTDTLTLTCTVSGCSLSSCAISWVRQAPGKGLEWIGFMSVTGSAYYANWAKSRSTITRNTNENTVTLKMTRLTAADTAIYFCARVGIGSGLNIWG VL: DMTQTPSSKSVPVGDTVTINCQASETVYSNNYLAWFQQKPGQPPKRLIYGVSTLDSGVPPRFSGSGSGTQFTLTISDVVCDDAATYYCAGYKTSSSYAIAFGGGTELEIL	–	–	–	–	Kd [6]: 8.46 nM; koff [6]: 0.000242 s⁻¹; kon [6]: 28600 M⁻¹ s⁻¹
40G5 (antibody, V domains shown, mouse hybridoma clone; not the consensus 40G5c; also called mu40G5) VH: QVQLQQSGPELVKPGTSVKMSCKASGYTFTNYYIHWVRQRPGQGLEWIGWIYPGDVSTKYNEKFKGKTTLTADKSSSTAYMLLSGLTSEDSAIYFCARDGYSFYYFDYWGQGTTLTVSS VL: DIVLTQSPSSLAVSAGEKVTMSCKSSQSLLNSRTRKNYLTWYQQKPGQSPKLLIYWASTRDSGVPDRFSGSGSGTDFTLTISSVQAEDLAVYYCTQSYTLRTFGGGTKLEIK	–	–	–	–	Kd [5]: 0.159 nM; koff [5]: 2.48e-05 s⁻¹; kon [5]: 156000 M⁻¹ s⁻¹; Kd [6]: 0.86 nM; koff [6]: 2.69e-05 s⁻¹; kon [6]: 31100 M⁻¹ s⁻¹

Second part, led by results:

ratio (fold) [1] [fold]	Kd [2] [nM]	koff [2] [s⁻¹]	kon [2] [M⁻¹ s⁻¹]	Binder	further results
110	87	0.0246	283000	hu38E4.v1 H3 mutant Y100aA (Fab, V domains shown, copies: 1 + 1) VH: EVQLVQSGAEVKKPGASVKVSCKASGFTFTSYYIHWVRQAPGQGLEWIGWIYPENDNTKYNEKFKDRVTITADTSTSTAYLELSSLRSEDTAVYYCARDGYSRYAFDYWGQGTLVTVSS VL: DIVMTQSPDSLAVSLGERATINCKSSQSLLNSRTRKNYLAWYQQKPGQSPKLLIYWTSTRKSGVPDRFSGSGSGTDFTLTISSLQAEDVAVYYCKQSFILRTFGQGTKVEIK	–
5.1	4	0.0124	3.08e+06	hu38E4.v1 L3 mutant I93A (Fab, V domains shown, copies: 1 + 1) VH: EVQLVQSGAEVKKPGASVKVSCKASGFTFTSYYIHWVRQAPGQGLEWIGWIYPENDNTKYNEKFKDRVTITADTSTSTAYLELSSLRSEDTAVYYCARDGYSRYYFDYWGQGTLVTVSS VL: DIVMTQSPDSLAVSLGERATINCKSSQSLLNSRTRKNYLAWYQQKPGQSPKLLIYWTSTRKSGVPDRFSGSGSGTDFTLTISSLQAEDVAVYYCKQSFALRTFGQGTKVEIK	–
20	15.9	0.0232	1.46e+06	hu38E4.v1 L3 mutant F92A (Fab, V domains shown, copies: 1 + 1) VH: EVQLVQSGAEVKKPGASVKVSCKASGFTFTSYYIHWVRQAPGQGLEWIGWIYPENDNTKYNEKFKDRVTITADTSTSTAYLELSSLRSEDTAVYYCARDGYSRYYFDYWGQGTLVTVSS VL: DIVMTQSPDSLAVSLGERATINCKSSQSLLNSRTRKNYLAWYQQKPGQSPKLLIYWTSTRKSGVPDRFSGSGSGTDFTLTISSLQAEDVAVYYCKQSAILRTFGQGTKVEIK	–
